These results are taken from paper PMC9405206 (Biomedicines, 2022).

In general, Kd refers to a measure of binding affinity in units of concentration. By koff is commonly meant a measure of how fast the partners let go of each other. The low end stands for slow dissociation, the high end for fast dissociation. The term kon denotes a measure of how fast the partners come together.

In this assay the target is T1, CD47, biotin-conjugated antigen (Homo sapiens, UniProt Q08722, biotin-conjugated).
T1 construct: CD47; Probably the extracellular domain (surmise); also called antigen CD47; source: bought: Sino Biological Inc
The assay can be described thus: BLI; ForteBio Octet RED96; streptavidin-coated tips loaded with biotin-conjugated PD-L1 or CD47 (100 nM); antibodies or fusion proteins in solution at 25, 50, 75, 100, 125 and 150 nM; dissociation in PBS; 37 °C; global fit, KD = kd/ka. The settings on record: both partners purified. Background: Biolayer interferometry detects binding as a change in optical thickness at a sensor tip.

B1: anti-CD47 mAb (B6H12), positive control antibody made in-house (antibody, V domains shown)
VH: EVQLVESGGGLVQPGGSLRLSCAASGFTFSGYGMSWVRQAPGKGLEWVATITSGGTYTYYPDSVKGRFTISRDNAKNSLYLQMNSLRAEDTAVYYCARSLAGNAMDYWGQGTLVTVSS
VL: EIVLTQSPATLSLSPGERATLSCRASQTISDYLHWYQQKPGQAPRLLIKFASQSISGIPARFSGSGSGTDFTLTISSLEPEDFAVYYCQNGHGFPRTFGQGTKVEIK
notes: source: produced in-house from plasmids pUC57/B6H12-Lc and pUC57/B6H12-Hc
Turning to B1, the Kd came out at 4.08 pM, the koff came out at 3.99e-07 s⁻¹ and the association rate constant (kon) is 97900 M⁻¹ s⁻¹.
